From the nanobody polyreactivity screen of Harvey et al. (2022)

Assay: yeast display, Sf9 membrane polyspecificity reagent, FACS + sequencing; frameworks hold sequencing errors
Method in brief: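 Galactose-induced (36–48 hours) yeast carrying a synthetic nanobody display library were exposed to 10% biotinylated, detergent-solubilized Sf9 membrane reagent at 4 °C for 1 hour. FACS followed streptavidin microbead enrichment, using low and high (top ~1%) gates for expression (anti-HA) and reagent binding (streptavidin). Colony PCR, MiSeq 2 × 250 sequencing and CDR-length filtering followed. Labels for polyreactivity reflect the gate of origin.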

Row | Sequence | polyreactivity (PSR sort gate)
1 | QVQLLESGGGLVEAGGSLRLSCSASGSTYNAMGWYRQATGKEREFVAYITTGGGGTYYADSVKGRFTISRDNAKNTVYLQMNSLKPEETADYYCAAEDYRTRTYVYRYRYYFWGQGTQVTVAS | high polyreactivity
2 | QVQLVESGGGLVQAGGSLRLSCAASGSIFWTNAMGCYIQAPGKERELVAAITGGGTTYYADSVKGRFTISRDNAKNTVYLQMNSLKPEDTAVVYTVSSAQYDYWGQGTQVTVSS | low polyreactivity
3 | QVQHVESGGGLVQAGGSLRLSCAASGITFVLNSMGWSRPAPGKERELVAAIDTSGADTYYADSVKGRFTISRDNAKNTVYLQMNSLKPEDTAVYYCAAETITDDSYEYDYWGQGTQVTVSS | low polyreactivity
4 | QGQLVESGGGLVQAGGSLRFSCAASGRIFSVYDMGWYRQAPGTERELVAAIDTSDGSTNYADSVKGRFTISRDNAKNSVYLQMNSLKPEDTAVYYCNATDSYVPFDYWGQGTQVTVSS | low polyreactivity
5 | QVQLVESGGGLVQAGGSLRLSCAASGSTFRYYAMGWYRQAPGKERELVASISTGGRTYYADSVKGRFTISRDNAKNTVYLQMNSLKPEDTAVYYCAAQGYWIYNTAYGYWGQGTQVTVSS | high polyreactivity
6 | QVQLVESGGGLVQAGGSLRLSCAASGSIFTINAMGWYSQAPGKERELVAALTSGGSTSYADSVKGRFTISRDIAKNTVYLQMNSLKPEDTAVYYCAADAKRFYPYRWRLYYWGQGTQVTVSS | high polyreactivity
7 | QVQLVESGGGLVQAGGSLRLSCAASGGIFYAYAMGWYRQAPGKERELVAAISISDGDTYYADSVKGRFTISRDNAKNTVYLQMNSLKPEDTAVYYCAAEQEYDLREYDYWGQGTQVTVSS | high polyreactivity
8 | QVQLVESGGGLVQAGGSLRVSCAASGSIFDSNAMGWYRQAPGKERELVASITSSGGSTYYADSVKGRFTISRDNAKNTVYLQMNSLKPEDTAVYYCAKRAWTGYGYYYWGQGTQVTVSS | high polyreactivity
9 | QVQLVESGGGLVQAGGSLRLSCAASGSTFDYYTMGWYRQAPGKERELVAAINSSGGRTYYADSVKGRFTISRDNAKNTDYLQMNSLKPEVTAVYYCARTRSVYGYDYWGQGTQVTVSS | high polyreactivity
10 | QVQLVETGGGLVQAGGSLRISCAASGLILDGYALGWYRQAPGKERELVAAITRSGGRTYYADSVKWRFTISRDNAKNTVYLQMNRLKPEDTAVYDCAALGWSGRYRYDYWGQGTLVTVSS | high polyreactivity
11 | QVQLVESGGGLVQAGGSLRLSCAASGSIFSPNAMGWYRQATGKERELVAAISWTGVSTHYADSVKGRFTISRDNAKNTDYLHMNSLKPEDTAVYYCKYRFYRYPKYGYWGQGTQVTVSS | high polyreactivity
12 | QVQLVESWGGLVQAGGSLRLSCAASGFIFSSYGMGWYRQAPGKERELVADISGGGSTNYADSVKGRFTISRDNAKNTVYLQMISLNPEDTAVYYCNAQLIRSAAYDYWGQGTQVTVSS | low polyreactivity
13 | QVQLVESGGGLVQAGGSLRLSCAASGLIFQVYDIGWYRQAPGKERELVAAISSGSNTNYADSVKGRFTISRDNAKNTVYLQMNSLKPEDTAVYYCAADFQYYFFWEEDYWGQGTQVTVSS | low polyreactivity
14 | QVQLVESGGGLVQAGGSLRLSCAASGITFPGYAMGWYRQAPGKERELVAAIDRSGDGTYYADSVKGRFTISRDNAKNTVYLQMNSLKPEDPAVYYCAKDNYPNHSTVLAVIYDYWGQGTQVTVSS | low polyreactivity
15 | QVQLVESGGGLVQAGGSLRLSCAASGRIFLDYAMGWYRQAPGKERELVAAINSGGRTNYADSVKGRFTISRDNAKNTVYLQMNSLKPEDTAVYYCAAGYWPRWFWPYEYWGQGTQVTVSS | low polyreactivity
16 | QVQLEESRGGLVQAGGSLRLSCAASGYTLYEYAMGWYRQAPGKERELDAAITRSGGSTYYADSVKGRFTISRDNAKNTVYLQMNSLKPEDTAVFYCNADIYSRHTVGGYYYWGQGTQVTVSS | high polyreactivity
17 | QVQLEESGGGLVQAGGSLRLSCDASGRIFGGYAMGWYRQAPGKERELVAAISASGGRTYYADSVKGRFTISRDNAKNTVYLQMNSLKPEDTAVYYCAASFRRTSLRWHGEYWGQGTQVTVSS | high polyreactivity
18 | QVQLVESGGGLVQAGGSLRLSCAASGRIFVKYAMGLYRQAPGKERELVAAIRSGGSTYYADSVKRRFTISRDNAKYTVYLQMNSLKPEDTAVYYCAADRNKHHYYNEPYDYWGQGTQVTVSS | low polyreactivity
19 | QVQLVESGGGLVQAGGSLRLSCAASGRTFTHYAMGWYRQAPGKERELVAAITASGGSTYYADSVKGRFTISRDNAQNTVYLQMNSLKPEDTAVYYCATEANQRTLNDTVKDYDYWGQGTQVTVSS | low polyreactivity
20 | QVQLVESGGGLVQAGGSLRLSCAASGFIIQGNAMGWYRQAPGKERELVAAISSSVSTYYADSVKGRFTISRDNAKNTVYLQMNSLKPEDTAVYYCNAGFPLSLWLGDYWGQGTQVTVSS | low polyreactivity
21 | QVQLVESGGGLVQAGGSLRLSCAASGSTFIFYAMGWYRQAPGKERELVATISGGGSTYYADSVKGRFTISRDNAKNTVYLQMNSLKPEDTAVYYCATDVQVPGIGRSVYAYEYWGQGTQVTVSS | low polyreactivity
22 | QVQLVESGGGLVQAGGSLRLTCAASGRIFKRYVMGWYRQAPGKERELVAAISVRGASTYYADSVKGRFTISRDHAKNTVYLQMNSLKPEDTAVYYCATAGYRLLDYWGQGTQVTVSS | high polyreactivity

Row | Sequence | polyreactivity (PSR sort gate)
23 | QVQLVESGGGLVQAVGSLRLSCAASGSTLSANAMGWYRQAPGKEWELVAAISWNGGCTYYADSVKGRFTISRDNAKNTVYLQMNSLKPEDTAVYYCAAEYIVTYEYWYFGYDYWGQGTQVTVSS | low polyreactivity
24 | QVQLVESGGGLVQAGGSLRLSCAASGLTFLRNGMGLYRQAPGKERELVASITRSGTRTYYADSVKGRFTISRDNAKNSVYLQMNSLKPEDTAVYYCAARAYVSHYGVSNFGFYYWVQGTQVTVSS | high polyreactivity
25 | QVQLVESGGGLVQAGGSLRLSCAASGRIWVNAMGCYRQAPWKESELVAAISTSSASTYYADSVKGRFTISRDNAKNTVYLEMNSLKPEDTAVYYCAARWARQLGSGRRGDYWGQGTQVTVSS | high polyreactivity
26 | QVQLVESGGGLVQAGGSLRLSCAASGRIFYYNVMGWYRQAPGKERELVAAITWSGGSTYYADSVKGRFTISRDNAKNTVYLQMNSLKPEDTAVYYCAAKFSKWTLKKYYYWGQGTQVTVSS | high polyreactivity
27 | QVQRVDSGGGLVQAGGSLRLSCAASGFTFAVYAMGWYRQSPGKERELVAAISRSGTRTYYADSVKGRFTISRDNAKNTVYLQMNSLKPEDTAVYYCAADKYRLGYDYWGQGTQLTVSS | low polyreactivity
28 | QVQLVESGGGLVQAGGSLRLSSAASGRTFRYYTMGWYRQAPGKEREFVAAISSTGGTYYADSVKGRFTISRDNAKNNVYLQMNSLKPEVTAVYYCAATFIQVVVNVELYDYDYWGQGTQVTVSS | low polyreactivity
29 | QVQLVESGGGLVQAGGSLRLSCAASGSTFIIYAMGWYRQAPGKERELVAAITWRGGTTYYADSVKGRFTISRDNAKNTVYLQMNSLKPEDTAVYYCNAKFGYPFVDYDDYWGQGTKVTVSS | low polyreactivity
30 | QVQLVESGGGLVQAGGSLRLSCAASGRIFTYYGMGWSRQAPGKEMELVAAISSSGDSTFYADSVKGRFTISRDNAKNTVYLQMNSLKPEDTAVYYCAADYYYVWYDYWGQGTQVTVSS | low polyreactivity
31 | QVQLVESGGGLVQAGGSVRLSCAASGFIFWYSAMGWYRQAPGKERELVAAISGTGGTTYYADSVKGRFTISRDNAKNTVYLQMNSLKPEDTAVYYCNFRYDSRRTAIGYAYWGQGTQETVSS | low polyreactivity
32 | QVQLVESGGGLVQAGGSLRLSCAASGLIFRYYCMGWSRQAPRKERELVATINRSGGRTYYADSVKGRFTISRDNAKNTDSLQMNSQKRDETAVYYCAALPEVYWIYGPQMDYWGQGTQVNVSS | high polyreactivity
33 | QVQLVESGGGLVQAGGSLRLSCAASGIIFRYYVMGWYRQAPGKERELVADITSGGSTYYADSVKGRFTISRDNEKNTVYLQMNSLKPEDTAVYYCAADYQYDWFYYWGQGTQVTVSS | high polyreactivity
34 | QVQVVESGGGLVQAGGSLRLSCAASGFTYGNNGMGWYRQAPGKERELVATISWSGGSTYADSVKGRFTISRDNAKNTVYLQMNSLKPEDTAVYYCAARYFVYYQEVDYWGQGTQVTVSS | low polyreactivity
35 | QVQLVESGGGLVQAGGSLRLSCAASGSTFYANAMGWYRQAPGKDRELVAAITRSGAGTYYADSVKGRFTISRDNAKNTGYLQMNSLKPEDTAVYYCAKRTKTPTGYVWGGYDYWGQGTQVTGSS | high polyreactivity
36 | QVHLVESGGGLVQAGGSLRVSCAASGSIFPYAMGCYRQAPGKEREFVAAITSGVRTNYADSVKGRFTISRDNAKNNVYLQINSLKPEDTAVYYCAARYFPHYYSKYDYWGPGTQVTVSS | low polyreactivity
37 | QVQLVESGGGLVQAGGSLRLSCAASGRISFRYAMGWYRQAPGKERELVAAINRGGITNYADSVKGRFTISRDNAKNTVYLQMNSLKTEDTAVYYCAARYASPRYKSKMEYWGQGTQVTVSS | high polyreactivity
38 | QVQLVESGGGLVQAGGSLRLSCAASGRTFRSYDMGWYRQAPGKERELVAAISKRGGNTYYADSVKGRFTISRDNAKNTVYLQMNSLKPEDTAVYYCAKRVSGSPPTAGSLSDSWGQGTQVTVSS | high polyreactivity
39 | QVQLVETGGGLVQAGGSLSLSCAASGRTFGRYAMGWYRQAPGKERELVAAITWSGGSTYYADSVKGRFTISRDNAKNTVYLQMNSLKPEDTAVYYCAASGYPIYHDDYWGQGTQVTVSS | low polyreactivity
40 | QVQLVESGGGLVQAGGSLRLSCAASGNTFVYYNMGWYRQAPGKERELVAAINWSGGSTYYADSVKGRFTISRDNAKNTVYLQMNSLKPEDTAVYYCAADTSYYPYEYWGQGTQVTVSS | high polyreactivity
41 | QVQLEESGGGLVQAGGSLRLSCAASGSIFRYNAMGWYRQAPGKERELVAAITSGDSTYYADSVKGRFTISRDNAKNTVYLQMNSLKPEDTAVYYCAADLRYIYWSYYYWGQGTQVTVSS | low polyreactivity
42 | QVQLVESGGGLVQAGGSLRLSCAASGLTFHYYGMGWYRQAPGKERELVAAISSGGSTYYADSVKGRFTISRDNAKNTVYLQMNSLKPEDTAVYYCAASLAYWYRGHYDYWGQGTQVTVSS | low polyreactivity
43 | QVQLVESGGGLVQAGGSLRLSCAASGSIRYYAMGWYRPAPGKERELVAGITRNGGSTYYADSVKGRFTISRDNAKNTVYLQMNSLKPEDTAVYYCAAGFTTRRGEYNYWGQGTQVTVSS | high polyreactivity
